The target of data set [1] is HMGB1 Δ40 (disulfide form) (UniProt P09429 1-175, del176-215). The data set can be described thus: fluorescence anisotropy; 200 mM NaCl; value only in figure; as strong as Δ39; 10 mM potassium phosphate pH 7.4, 200 mM NaCl (32G) or 150 mM NaCl (J1), 4 nM FAM-DNA, 25 °C. As to conditions: protein: recombinant; label: 5'-FAM; G-quadruplex. (In fluorescence polarisation assays a small probe gives low polarisation when free and higher when bound to something large.)

In data set [2] the target is HMGB1 Δ44 (disulfide form) (UniProt P09429 1-171, del172-215). Described as above. As to conditions: protein: recombinant; label: 5'-FAM; G-quadruplex.
In data set [3] the target is T1, HMGB1 Δ39 (disulfide form) (UniProt P09429 1-176, del177-215). The data set can be described thus: fluorescence anisotropy; 200 mM NaCl; value only in figure; affinity higher than full-length; 10 mM potassium phosphate pH 7.4, 200 mM NaCl (32G) or 150 mM NaCl (J1), 4 nM FAM-DNA, 25 °C. As to conditions: protein: recombinant; label: 5'-FAM; G-quadruplex.
Data set [4] deals with T2, HMGB1 full-length (disulfide form) (UniProt P09429 1-215). The data set can be described thus: fluorescence anisotropy; 200 mM NaCl; value only in figure; affinity lower than Δ39; 10 mM potassium phosphate pH 7.4, 200 mM NaCl (32G) or 150 mM NaCl (J1), 4 nM FAM-DNA, 25 °C. As to conditions: protein: recombinant; label: 5'-FAM; G-quadruplex.
Another data set has as its target T3, TLR4•MD-2 complex (UniProt O00206 24-631; Q9Y6Y9 19-160).
T3 construct: toll-like receptor 4 (TLR4) of the bought TLR4•MD-2 complex; MD-2 of the bought TLR4•MD-2 complex; also called toll-like receptor 4 • MD-2 complex; source: bought: R&D Systems (catalog no. 3146-TM-050), lyophilized
The data set can be described thus: SPR; TLR4•MD-2 complex immobilised on a CM5 chip by amine coupling (1200 RU); HMGB1 proteins injected at 30 μl/min, 25 °C; 10 mM Hepes (pH 7.4), 150 mM NaCl, 3 mM EDTA, 0.005% v/v Tween-20; 1:1 binding model; Biacore T-100; three independent experiments. As to conditions: both partners purified. A general note: Surface plasmon resonance follows binding to a sensor surface in real time, without labels.

Data set [5] has as its target T1, HMGB1 Δ39 (disulfide form). The data set can be described thus: fluorescence anisotropy; 150 mM NaCl; value only in figure; affinity higher than full-length; 10 mM potassium phosphate pH 7.4, 200 mM NaCl (32G) or 150 mM NaCl (J1), 4 nM FAM-DNA, 25 °C. As to conditions: protein: recombinant; label: 5'-FAM on J1A; four-way junction of 4 x 16-mer strands.
Data set [6] deals with T2, HMGB1 full-length (disulfide form). The data set can be described thus: fluorescence anisotropy; 150 mM NaCl; value only in figure; affinity lower than Δ39; 10 mM potassium phosphate pH 7.4, 200 mM NaCl (32G) or 150 mM NaCl (J1), 4 nM FAM-DNA, 25 °C. As to conditions: protein: recombinant; label: 5'-FAM on J1A; four-way junction of 4 x 16-mer strands.

T3 sequence (O00206 24-631, chain 1 of 2): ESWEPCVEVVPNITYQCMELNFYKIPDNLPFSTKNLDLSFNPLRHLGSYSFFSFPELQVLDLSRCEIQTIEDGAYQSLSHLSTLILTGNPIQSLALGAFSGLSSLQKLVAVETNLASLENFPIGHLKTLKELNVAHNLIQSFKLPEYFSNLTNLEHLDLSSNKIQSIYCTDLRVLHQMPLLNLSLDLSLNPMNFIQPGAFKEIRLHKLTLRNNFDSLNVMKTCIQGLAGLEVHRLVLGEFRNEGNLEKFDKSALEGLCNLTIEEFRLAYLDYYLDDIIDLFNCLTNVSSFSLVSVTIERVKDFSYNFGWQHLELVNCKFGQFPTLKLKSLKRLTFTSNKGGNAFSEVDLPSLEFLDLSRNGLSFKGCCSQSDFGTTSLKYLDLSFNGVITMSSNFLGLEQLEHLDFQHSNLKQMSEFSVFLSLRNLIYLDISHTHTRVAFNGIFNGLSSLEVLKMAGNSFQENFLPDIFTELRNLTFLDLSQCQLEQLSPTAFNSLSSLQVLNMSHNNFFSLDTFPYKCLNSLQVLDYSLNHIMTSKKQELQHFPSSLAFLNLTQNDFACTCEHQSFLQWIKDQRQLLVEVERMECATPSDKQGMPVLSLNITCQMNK
T3 sequence (Q9Y6Y9 19-160, chain 2 of 2): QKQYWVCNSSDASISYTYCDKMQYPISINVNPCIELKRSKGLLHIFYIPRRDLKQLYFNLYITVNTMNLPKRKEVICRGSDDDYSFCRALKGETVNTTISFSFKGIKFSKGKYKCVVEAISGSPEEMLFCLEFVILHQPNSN

For AGGGCGGTGTGGGAAGAGGGAAGAGGGGGAGG (structured_DNA) [FAM-32G G-quadruplex], the binding result in data set [1], in data set [2], in data set [3] and in data set [4] was “binds” each time.

B1: full-length (FL) disulfide HMGB1 protein (high-mobility-group-box-1, oxidized) (natural protein, UniProt P09429 1-215, looked up)
chain: MGKGDPKKPRGKMSSYAFFVQTCREEHKKKHPDASVNFSEFSKKCSERWKTMSAKEKGKFEDMAKADKARYEREMKTYIPPKGETKKKFKDPNAPKRPPSAFFLFCSEYRPKIKGEHPGLSIGDVAKKLGEMWNNTAADDKQPYEKKAAKLKEKYEKDIAAYRAKGKPDAAKKGVVKAEKSKKKKEEEEDEEDEEDEEEEEDEEDEDEEEDDDDE
modifications: disulfide bond between Cys23 and Cys45
notes: 215 residues (D/E repeats are residues 186-215); also called FL HMGB1; intact disulfide HMGB1; source: E. coli BL21(DE3), purified (SP-FF cation exchange, Resource-Q anion exchange, Sephacryl S-100 HR SEC)
As a reminder, the Kd is the free concentration of one partner at which half of the binding sites on the other are occupied at equilibrium, for simple one-to-one binding. B1 showed a Kd with TLR4•MD-2 complex of 367 nM.

B2: Holliday junction J1 (J1A/J1B/J1C/J1D) (structured_DNA)
DNA 1: CGCAATCCTGAGCACG
DNA 2: CGTGCTCACCGAATGC
DNA 3: GCATTCGGACTATGGC
DNA 4: GCCATAGTGGATTGCG
Take B2: the binding result in data set [5] and in data set [6] was “binds” throughout.

B3: Δ39 variant of disulfide HMGB1 (lacks the C-terminal 39 residues) (domain or fragment, UniProt P09429 1-176, looked up)
chain: MGKGDPKKPRGKMSSYAFFVQTCREEHKKKHPDASVNFSEFSKKCSERWKTMSAKEKGKFEDMAKADKARYEREMKTYIPPKGETKKKFKDPNAPKRPPSAFFLFCSEYRPKIKGEHPGLSIGDVAKKLGEMWNNTAADDKQPYEKKAAKLKEKYEKDIAAYRAKGKPDAAKKGVV
modifications: disulfide bond between Cys23 and Cys45
notes: HMGB1 of GenBank CAG33144.1 with a stop codon at K177; lacks residues 177-215, ends at V176; also called Δ39 product; source: E. coli BL21(DE3), purified (SP-FF cation exchange, Resource S cation exchange, Sephacryl S-100 HR SEC)
As for B3, binding in the data set with TLR4•MD-2 complex was put at a Kd of 25 nM.
